The values that follow come from the supplement of paper PMC9112550, “Optimization of the antimicrobial peptide Bac7 by deep mutational scanning” (BMC Biology, 2022).

This series has as its system Escherichia coli TOP10. The series can be described thus: shrunken log2 fold change of peptide-encoding DNA abundance (4.5 h post-induction vs induction); higher = less antimicrobial activity (less host growth inhibition). Conditions: time post-induction: 4.5 h; library: site-saturation at positions 5, 18, 19, 20.
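Also: peptides expressed intracellularly from a pBAD plasmid library in pooled LB shake-flask culture, induced with 0.3% L-arabinose, DNA abundance read by NGS, three biological replicates, DESeq2 with apeglm shrinkage.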

As to RRIRLRPPRLPRPRPRPYIDPRP, the “shrunken log2 fold change” value was -0.00113.
In the case of RRIRHRPPRLPRPRPRPVSLPRP, the “shrunken log2 fold change” value was -0.0931.
Under RRIRQRPPRLPRPRPRPDLWPRP stands 0.514; under RRIRNRPPRLPRPRPRPGSRPRP, -0.0159.
RRIRHRPPRLPRPRPRPTVCPRP: the “shrunken log2 fold change” value stood at 0.196.
As to RRIRSRPPRLPRPRPRPVMAPRP, the “shrunken log2 fold change” value came to 0.304.
The same measure for RRIRCRPPRLPRPRPRPSIRPRP: -0.608; for RRIRFRPPRLPRPRPRPGHEPRP: -0.196.
The same measure for RRIRFRPPRLPRPRPRPYKHPRP: -0.911; for RRIRHRPPRLPRPRPRPFFEPRP: -0.0877.
The same measure for RRIRPRPPRLPRPRPRPMQQPRP: -0.0524; for RRIRTRPPRLPRPRPRPGQFPRP: -0.182; for RRIRFRPPRLPRPRPRPGYIPRP: -0.0716.
Turning to RRIRERPPRLPRPRPRPDEWPRP, the “shrunken log2 fold change” value was -0.215.
The same measure for RRIRNRPPRLPRPRPRPSFFPRP: -0.367.
Take RRIRVRPPRLPRPRPRPSAGPRP: the “shrunken log2 fold change” value stood at 0.295.
With RRIRLRPPRLPRPRPRPENVPRP, the “shrunken log2 fold change” value was -0.0483.
Under RRIRPRPPRLPRPRPRPPFTPRP stands 0.185; under RRIRQRPPRLPRPRPRPKKKPRP, -0.0791.
Under RRIRKRPPRLPRPRPRPPRKPRP stands 0.821; under RRIRGRPPRLPRPRPRPAAMPRP, 1.54.
The same measure for RRIRWRPPRLPRPRPRPNDHPRP: -0.0566; for RRIRTRPPRLPRPRPRPGEMPRP: 0.136.
Regarding RRIRSRPPRLPRPRPRPDCSPRP, the “shrunken log2 fold change” value was 0.0664.
With RRIRWRPPRLPRPRPRPTLKPRP, the “shrunken log2 fold change” value was 0.0453.
Under RRIRWRPPRLPRPRPRPPMHPRP stands 0.429.
The same measure for RRIRCRPPRLPRPRPRPYGQPRP: -1.33.
The same measure for RRIRNRPPRLPRPRPRPCVCPRP: -0.00201; for RRIRRRPPRLPRPRPRPSHPPRP: 0.167; for RRIRERPPRLPRPRPRPMDIPRP: -0.235.
For RRIRKRPPRLPRPRPRPMGTPRP, the “shrunken log2 fold change” value came out at 0.335.
RRIRWRPPRLPRPRPRPIKNPRP: the “shrunken log2 fold change” value was 0.136.
Under RRIRKRPPRLPRPRPRPQVMPRP stands -0.162.
Regarding RRIRVRPPRLPRPRPRPIVLPRP, the “shrunken log2 fold change” value was -0.176.
For the sequence RRIRDRPPRLPRPRPRPELLPRP, the “shrunken log2 fold change” value is 0.011.
Under RRIRLRPPRLPRPRPRPVKMPRP stands -0.327; under RRIRNRPPRLPRPRPRPGFQPRP, -0.0148.
Consider RRIRARPPRLPRPRPRPLEWPRP, for which the “shrunken log2 fold change” value was -0.0062.
The same measure for RRIRARPPRLPRPRPRPQAMPRP: 0.132.
With RRIRGRPPRLPRPRPRPRMGPRP, the “shrunken log2 fold change” value was 0.868.
Under RRIRQRPPRLPRPRPRPEAGPRP stands 0.109.
The same measure for RRIRSRPPRLPRPRPRPARWPRP: 0.224; for RRIRERPPRLPRPRPRPGKSPRP: -0.00212; for RRIRIRPPRLPRPRPRPPGLPRP: 0.204.
Under RRIRRRPPRLPRPRPRPLTNPRP stands -0.16; under RRIRSRPPRLPRPRPRPRSKPRP, 0.0951; under RRIRVRPPRLPRPRPRPLPGPRP, 0.547.
With RRIRYRPPRLPRPRPRPKPGPRP, the “shrunken log2 fold change” value worked out at 0.221.
The same measure for RRIRCRPPRLPRPRPRPDGKPRP: -0.0306; for RRIRERPPRLPRPRPRPISGPRP: -0.564.
